Results from patent US20220281969A1 (ANTLERA THERAPEUTICS, published 2022).

Key:
[1] = molecular target: T1, recombinant mouse LRP6His chimera (mouse, UniProt O88572 20-1370); assay: single-point ELISA, IgG1 on coated antigen
T1 construct: extracellular domain; not shown: His tag
T1 sequence (looked up): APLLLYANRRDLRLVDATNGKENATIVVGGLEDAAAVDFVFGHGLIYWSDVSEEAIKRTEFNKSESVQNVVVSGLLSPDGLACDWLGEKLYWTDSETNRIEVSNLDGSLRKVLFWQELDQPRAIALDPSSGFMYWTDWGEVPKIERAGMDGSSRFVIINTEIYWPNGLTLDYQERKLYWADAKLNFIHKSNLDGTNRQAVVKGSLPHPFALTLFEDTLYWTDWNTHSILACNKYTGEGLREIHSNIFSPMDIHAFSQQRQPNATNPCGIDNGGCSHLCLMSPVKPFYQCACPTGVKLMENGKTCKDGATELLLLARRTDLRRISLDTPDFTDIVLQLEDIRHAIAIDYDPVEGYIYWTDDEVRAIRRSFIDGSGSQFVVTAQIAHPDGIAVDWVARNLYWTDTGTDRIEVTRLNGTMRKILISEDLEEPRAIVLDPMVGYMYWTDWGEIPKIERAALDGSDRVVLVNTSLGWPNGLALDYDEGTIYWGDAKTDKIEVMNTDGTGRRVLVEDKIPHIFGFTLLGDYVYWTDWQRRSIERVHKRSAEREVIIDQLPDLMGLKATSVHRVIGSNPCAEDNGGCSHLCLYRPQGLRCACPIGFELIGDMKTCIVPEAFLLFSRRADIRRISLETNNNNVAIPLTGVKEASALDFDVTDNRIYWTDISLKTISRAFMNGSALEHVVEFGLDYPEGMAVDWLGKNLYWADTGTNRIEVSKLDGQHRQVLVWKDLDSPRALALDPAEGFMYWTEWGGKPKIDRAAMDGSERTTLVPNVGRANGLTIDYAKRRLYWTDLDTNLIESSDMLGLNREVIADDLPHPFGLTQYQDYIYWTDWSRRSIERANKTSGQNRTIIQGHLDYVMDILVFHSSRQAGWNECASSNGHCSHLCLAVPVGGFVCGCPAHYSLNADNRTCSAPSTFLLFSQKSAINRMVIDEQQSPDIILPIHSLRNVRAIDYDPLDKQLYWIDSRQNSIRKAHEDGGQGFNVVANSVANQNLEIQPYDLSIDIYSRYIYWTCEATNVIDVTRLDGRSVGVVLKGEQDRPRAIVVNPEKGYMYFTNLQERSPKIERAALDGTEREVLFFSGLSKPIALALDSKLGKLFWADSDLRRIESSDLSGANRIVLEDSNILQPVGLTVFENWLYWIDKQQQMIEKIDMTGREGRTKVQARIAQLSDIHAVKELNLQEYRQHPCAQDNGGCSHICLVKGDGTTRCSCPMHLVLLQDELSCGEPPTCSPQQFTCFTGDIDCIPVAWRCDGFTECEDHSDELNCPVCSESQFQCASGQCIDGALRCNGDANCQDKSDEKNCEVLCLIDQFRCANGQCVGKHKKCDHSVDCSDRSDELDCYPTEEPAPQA
Experimental: (§1) FIGS. 1a and 1b show LRP six antibodies. (A) The amino acid sequences of the complementarity determining regions (CDR) of the heavy (H) and the light (L) chains are presented. The antibodies were grouped into unique epitopes as determined by competitive ELISAs. (B) Single-point ELISAs were performed on 96-well Maxisorb immune plates coated with the […] of mouse LRP5, mouse LRP6 and human LRP6 chimeras. The plates were incubated with the purified Fab or IgG1 at the concentrations indicated followed by incubation with horseradish peroxidase (HRP)-conjugated anti-kappa antibody. The wells were washed eight times followed by incubation with 3,3′,5,5′-tetramethylbenzidine/H₂O₂ peroxidase (TMB) substrate for 5-10 min. The reaction was stopped by adding one M H₃PO₄ and the absorbance was measured spectrometrically at 450 nm in a microtiter plate reader.
(§2) The full length IgG1s were purified and a single-point ELISA was done to determine the specificity of the antibodies. […] A multipoint competitive ELISA was used to determine the relative affinities of the antibodies to the recombinant antigen.

[2] = molecular target: T2, recombinant mouse LRP5-His chimera (mouse, UniProt Q91VN0 31-1383); assay: single-point ELISA, IgG1 on coated antigen
T2 construct: extracellular domain; not shown: His tag
T2 sequence (looked up): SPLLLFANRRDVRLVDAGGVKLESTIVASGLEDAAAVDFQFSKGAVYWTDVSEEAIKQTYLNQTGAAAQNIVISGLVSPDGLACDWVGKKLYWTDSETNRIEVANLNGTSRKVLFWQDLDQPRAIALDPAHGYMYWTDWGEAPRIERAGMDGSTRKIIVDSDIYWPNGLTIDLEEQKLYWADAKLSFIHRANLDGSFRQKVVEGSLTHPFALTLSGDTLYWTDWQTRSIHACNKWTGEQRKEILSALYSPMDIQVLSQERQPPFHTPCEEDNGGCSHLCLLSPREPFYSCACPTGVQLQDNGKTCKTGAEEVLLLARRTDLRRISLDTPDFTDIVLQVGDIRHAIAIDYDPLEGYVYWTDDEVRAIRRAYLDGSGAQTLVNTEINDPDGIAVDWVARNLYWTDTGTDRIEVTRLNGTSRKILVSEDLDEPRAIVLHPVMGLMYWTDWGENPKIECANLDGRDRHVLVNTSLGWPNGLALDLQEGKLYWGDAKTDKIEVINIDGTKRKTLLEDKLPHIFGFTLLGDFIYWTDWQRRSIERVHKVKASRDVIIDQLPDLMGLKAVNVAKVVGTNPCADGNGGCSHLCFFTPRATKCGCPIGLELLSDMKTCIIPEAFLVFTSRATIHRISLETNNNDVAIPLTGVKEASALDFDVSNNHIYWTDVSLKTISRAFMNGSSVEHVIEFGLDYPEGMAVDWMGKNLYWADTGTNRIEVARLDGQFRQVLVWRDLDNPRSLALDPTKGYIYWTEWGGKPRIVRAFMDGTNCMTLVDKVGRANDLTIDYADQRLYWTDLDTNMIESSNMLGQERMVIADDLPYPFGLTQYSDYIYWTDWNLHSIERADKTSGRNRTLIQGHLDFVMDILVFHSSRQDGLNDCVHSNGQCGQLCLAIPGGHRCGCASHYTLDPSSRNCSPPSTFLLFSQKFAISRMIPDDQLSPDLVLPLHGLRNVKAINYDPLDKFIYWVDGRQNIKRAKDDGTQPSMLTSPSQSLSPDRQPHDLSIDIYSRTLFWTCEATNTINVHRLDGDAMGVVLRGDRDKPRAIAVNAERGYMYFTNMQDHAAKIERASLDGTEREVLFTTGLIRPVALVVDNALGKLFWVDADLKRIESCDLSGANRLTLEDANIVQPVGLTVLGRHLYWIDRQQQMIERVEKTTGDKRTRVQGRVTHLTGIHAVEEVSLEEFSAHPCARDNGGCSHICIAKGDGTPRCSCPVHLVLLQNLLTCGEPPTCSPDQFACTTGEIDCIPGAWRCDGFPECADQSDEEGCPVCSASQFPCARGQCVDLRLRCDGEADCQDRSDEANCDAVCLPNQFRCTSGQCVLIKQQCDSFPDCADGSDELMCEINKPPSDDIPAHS
Experimental: as §1, §2

binding result [1]: no binding
binding result [2]: no binding
B1: LRP6-E3 IgG1 antibody (antibody, V domains shown)
VH: EVQLVESGGGLVQPGGSLRLSCAASGFNLYYYSMHWVRQAPGKGLEWVASIYSSYGYTYYADSVKGRFTISADTSKNTAYLQMNSLRAEDTAVYYCARYAGYYYYPWAYYGWPFSGLDYWGQGTLVTVSS
VL: DIQMTQSPSSLSASVGDRVTITCRASQSVSSAVAWYQQKPGKAPKLLIYSASSLYSGVPSRFSGSRSGTDFTLTISSLQPEDFATYYCQQAGSAPYHLITFGQGTKVEIKR
notes: Tested as purified full length IgG1
